This note sets out measurements from publication PMC8143406.

This data set concerns the target T1, GST-SXL (Sex-lethal) (UniProt P19339).
T1 sequence (P19339 whole entry, looked up): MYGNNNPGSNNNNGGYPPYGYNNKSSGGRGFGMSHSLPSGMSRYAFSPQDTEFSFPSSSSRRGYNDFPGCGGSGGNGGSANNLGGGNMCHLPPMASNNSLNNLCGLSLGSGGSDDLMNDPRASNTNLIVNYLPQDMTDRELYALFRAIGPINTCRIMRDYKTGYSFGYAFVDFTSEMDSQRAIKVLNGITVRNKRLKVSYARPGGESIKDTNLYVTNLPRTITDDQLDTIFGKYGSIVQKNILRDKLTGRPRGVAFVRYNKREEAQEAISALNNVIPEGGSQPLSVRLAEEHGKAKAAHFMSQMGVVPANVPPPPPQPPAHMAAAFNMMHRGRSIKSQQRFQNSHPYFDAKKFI
Briefly: EMSA. Particulars: EMSA as in cited refs 28 and 40, buffer, salt and pH not stated, GST-SXL at 166, 55 and 18 ng/ul, SELEX binding at 30 C for 30 min in 100 ul.

The mark [1] stands for this setting: within 2-3-fold of tra Py-tract.

pKd: −log10 of the molar value.

For orientation: pKd means the Kd on a negative log10 scale, so that one unit is a factor of ten. As for “UUUUUUUUUCUUUUUUUUGU [Gs2 3' UTR SXL-binding site RNA (cDNA SELEX clone 10-15h_14)]”, the pKd under setting [1] is 9.00.
As for “UUUUUGUUGUUUUUUUU [tra non-sex-specific polypyrimidine tract/3' splice site RNA]”, the negative-log Kd (pKd) is 9.00.
As to “UUUUUUUCUUUUUUUUCU [TnI 5' UTR SXL-binding site RNA (cDNA SELEX clone 10-15h_5)]”, under setting [1], the pKd is 9.00.
